{
  "source": "paper doi:10.1101/2021.07.15.452438",
  "about": "(bioRxiv, 2021)",
  "binders": {"B1": {"name": "His6MBP-fused ASXL1^567-587 (domain or fragment)", "chain": "PKVPPIRIQLSRIKPPWVVKG"}, "B2": {"name": "ASXL1^Y591X (domain or fragment)", "chain": "MKDKQKKKKERTWAEAARLVLENYSDAPMTPKQILQVIEAEGLKEMRSGTSPLACLNAMLHSNSRGGEGLFYKLPGRISLFTLKKDALQWSRHPATVEGEEPEDTADVESCGSNEASTVSGENDVSLDETSSNASCSTESQSRPLSNPRDSYRASSQANKQKKKTGVMLPRVVLTPLKVNGAHVESASGFSGCHADGESGSPSSSSSGSLALGSAAIRGQAEVTQDPAPLLRGFRKPATGQMKRNRGEEIDFETPGSILVNTNLRALINSRTFHALPSHFQQQLLFLLPEVDRQVGTDGLLRLSSSALNNEFFTHAAQSWRERLADGEFTHEMQVRIRQEMEKEKKVEQWKEKFFEDYYGQKLGLTKEESLQQNVGQEEAEIKSGLCVPGESVRIQRGPATRQRDGHFKKRSRPDLRTRARRNLYKKQESEQAGVAKDAKSVASDVPLYKDGEAKTDPAGLSSPHLPGTSSAAPDLEGPEFPVESVASRIQAEPDNLARASASPDRIPSLPQETVDQEPKDQKRKSFEQAASASFPEKKPRLEDRQSFRNTIESVHTEKPQPTKEEPKVPPIRIQLSRIKPPWVVKGQPT"}, "B3": {"name": "His6MBP-ASXL1^537-587 (domain or fragment)", "chain": "EKKPRLEDRQSFRNTIESVHTEKPQPTKEEPKVPPIRIQLSRIKPPWVVKG"}, "B4": {"name": "His6MBP-ASXL1^537-587 with the motif arginine mutated to alanine (domain or fragment)", "chain": "B3 chain with R37A"}, "B5": {"name": "His6MBP-ASXL1^537-587 Q575A (domain or fragment)", "chain": "B3 chain with Q39A"}, "B6": {"name": "His6MBP-ASXL2^582-634 (domain or fragment)", "chain": "EKRPRVTENRQHQQPFQVSPQPFLNRGDRIQVRKVPPLKIPVSRISPMPFHPS"}, "B7": {"name": "His6MBP-ASXL3^977-1027 (domain or fragment)", "chain": "EKRARIEDDQSTRNISSSSPPEKEQPPREEPRVPPLKIQLSKIGPPFIIKS"}},
  "key": {"BRD4-ET domain (for ITC) [1]": {"molecular_target": "T1, BRD4-ET domain (for ITC) (UniProt O60885 600-678)", "assay": "ITC"}, "TurboID-BRD4-ET": {"molecular_target": "TurboID-BRD4-ET (UniProt O60885 600-678)", "assay": "proximity labelling"}, "BRD4-ET domain (for ITC) [2]": {"molecular_target": "T1, BRD4-ET domain (for ITC)", "assay": "ITC", "remark": "listed apart in the source"}, "GST-BRD2^632-710": {"molecular_target": "GST-BRD2^632-710 (UniProt P25440 632-710)", "sequence (P25440 632-710)": "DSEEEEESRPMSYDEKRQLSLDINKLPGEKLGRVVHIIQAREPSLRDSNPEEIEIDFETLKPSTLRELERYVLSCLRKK", "assay": "pull-down"}, "GST-BRD3^562-640": {"molecular_target": "GST-BRD3^562-640 (UniProt Q15059 562-640)", "sequence (Q15059 562-640)": "as the sequence (P25440 632-710) above, with S8G, R9L, K25R, A40S, E51D, S63T, L73K, R77Q counted along it", "assay": "pull-down"}, "GST-BRD4^600-678": {"molecular_target": "GST-BRD4^600-678 (UniProt O60885 600-678)", "assay": "pull-down"}},
  "note": "Positions count from the first letter of the chain named. Names and notes keep the numbering of the source. Read-outs that look alike come from different tables or passages of the source.",
  "data": [
    {"binder": "B1", "values": [
      {"measurement": "Kd", "setting": "BRD4-ET domain (for ITC) [1]", "result": 1360, "unit": "nM"}
    ]},
    {"binder": "B2", "values": [
      {"measurement": "fold enhancement of BRD4-ET binding over full-length ASXL1", "setting": "TurboID-BRD4-ET", "result": 3.5, "unit": "fold"},
      {"measurement": "fold enhancement of ET-domain binding over full-length ASXL1, peptide […]", "setting": "TurboID-BRD4-ET", "result": "~3", "unit": "fold"}
    ]},
    {"binder": "B3", "values": [
      {"measurement": "Kd", "setting": "BRD4-ET domain (for ITC) [2]", "result": 535, "unit": "nM"},
      {"measurement": "Kd", "setting": "BRD4-ET domain (for ITC) [1]", "result": 1300, "unit": "nM"},
      {"measurement": "binding result", "setting": "GST-BRD2^632-710", "result": "binds"},
      {"measurement": "binding result", "setting": "GST-BRD3^562-640", "result": "binds"}
    ]},
    {"binder": "B4", "values": [
      {"measurement": "binding result", "setting": "GST-BRD4^600-678", "result": "binds"}
    ]},
    {"binder": "B5", "values": [
      {"measurement": "binding result", "setting": "GST-BRD4^600-678", "result": "binds"}
    ]},
    {"binder": "B6", "values": [
      {"measurement": "Kd", "setting": "BRD4-ET domain (for ITC) [1]", "result": 1100, "unit": "nM"}
    ]},
    {"binder": "B7", "values": [
      {"measurement": "Kd", "setting": "BRD4-ET domain (for ITC) [1]", "result": 2000, "unit": "nM"}
    ]}
  ]
}
